The values that follow come from patent publication US20160138094.

As usually defined, the IC50 is the concentration at which inhibition is half-maximal.

The test system of data set [1] is TALE_038 (TALE_97 with RVD NG opposite C6) repeat 5 RVD HD to NG (Xanthomonas axonopodis pv. citri (engineered)). Nature of the data set: inhibition.
Data set [2] has as its system TALE_037 (TALE_97 with RVD N* opposite C6) repeat 5 RVD HD to N* (position 13 deleted) (Xanthomonas axonopodis pv. citri (engineered)). Nature of the data set: inhibition.
Where [3] appears, read: inhibition of Klenow exo- primer extension, MgCl2, room temperature.
[4] abbreviates: 5mC at target position 6, inhibition of Klenow exo- primer extension, MgCl2, room temperature.

Consider “TGGATTCCCACTCTTCAGCCCCAGCGTTACAGCATCTTCAGTGGCTTCTTCCACCGTGAGCTCTTCCGTTTCCACATCC / GGATGTGGAAACGGAAGA [t97 template / p97_rev primer]”, for which the half-maximal inhibitory concentration (IC50) is 357 nM in data set [1] (setting [3]) and 60 nM in data set [2] (setting [3]).
As for “TGGATTCCCACTCTTCAGCCCCAGCGTTACAGCATCTTCAGTGGCTTCTTCCACCGTGAGCTCTTCCGTTTCCACATCC / GGATGTGGAAACGGAAGA [t97_C6hmC / p97_rev]”, the IC50 in data set [1] (5hmC at target position 6, reduction of primer extension to 50%, estimated) is 2000 nM; in data set [2] (5hmC at target position 6, reduction of primer extension to 50% at about this TALE concentration), 1500 nM.
Regarding “TGGATTCCCACTCTTCAGCCCCAGCGTTACAGCATCTTCAGTGGCTTCTTCCACCGTGAGCTCTTCCGTTTCCACATCC / GGATGTGGAAACGGAAGA [t97_C6mC / p97_rev]”, the results for the half-inhibitory concentration (IC50) in data set [1] (setting [4]) and in data set [2] (setting [4]) were 163 nM and 51 nM, respectively.
